Experimental data from patent US20180022794A1.

Molecular target: endogenous active RhoA (RhoA-GTP) of HeLa S3 cells (UniProt P61586)
Assay: cell-based or functional assay

Chain of endogenous active RhoA (RhoA-GTP) of HeLa S3 cells (P61586 1-190 limits assumed): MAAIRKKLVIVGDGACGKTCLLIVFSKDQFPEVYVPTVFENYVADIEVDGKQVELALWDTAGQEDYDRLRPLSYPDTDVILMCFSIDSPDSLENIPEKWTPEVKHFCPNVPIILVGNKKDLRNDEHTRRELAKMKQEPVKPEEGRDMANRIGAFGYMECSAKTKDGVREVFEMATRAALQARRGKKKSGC

RhoA-GTP level after 15 min of EGF treatment (GST-RBD pull down): 50%
B1: F-H12 (VHH, part only; not given: Fbox domain and myc tag, not shown: small tags and cut ends)
chain, part: VQLQASGGGFVQPGGSLRLSCAASGDGSRIYAMGWFRQAPGKEREFVSAISWEQDWEHYYADSVKGRFTISRDNSKNTVYLQMNSLRAEDTATYYCAAFMTPHRNLTSMYWGQGTQVTVSS
